T1: His6-Hof1-C (amino acids 341–669) (S. cerevisiae, UniProt Q05080 341-669)
T1 sequence (looked up): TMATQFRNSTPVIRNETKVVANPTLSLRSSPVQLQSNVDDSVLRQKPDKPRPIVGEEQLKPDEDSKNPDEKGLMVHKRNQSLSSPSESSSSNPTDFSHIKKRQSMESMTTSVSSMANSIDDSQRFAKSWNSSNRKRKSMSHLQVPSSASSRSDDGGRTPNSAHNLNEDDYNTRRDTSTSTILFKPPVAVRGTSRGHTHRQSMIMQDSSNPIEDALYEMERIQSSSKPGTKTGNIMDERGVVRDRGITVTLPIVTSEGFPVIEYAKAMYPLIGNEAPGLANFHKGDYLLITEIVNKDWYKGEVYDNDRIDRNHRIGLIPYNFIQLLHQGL

B1: GST-Inn1-tail (amino acids 131–409), wild type (domain or fragment, S. cerevisiae, UniProt P53901 131-409, looked up)
chain: LTFTPKVPRLNRDDLNKEMDRLDSSMAMRPIPPLPTESEYDYVHGSTMRQITPQCVSTSHEDKDEGQPYRNGNVFSMSSKSDTAVLANSNDPIILPPTFSASMGTTSTLETNDTAISNTSNTKFHFANLRKLKEKINIFKNPDSSTNNCQNESNKVDIEALQKAIGVTSLSYDEDDDDDDENDAFYSSSHRVSHNYNQPPLPPIPTRDDMSNYSSSRNTPLVRRDRPSRLDSSSPNSHPHPSGLNSPKLPPLPTTSNSNFNSRKNSMSPTRKRPPPRLS

Legend:
[1] = target: T1, His6-Hof1-C (amino acids 341–669); assay: pull-down
[2] = target: B1; assay: pull-down

| binding result [1] | binding result [2] | Binder |
| --- | --- | --- |
| binds | – | B1 |
| – | binds | His6-tagged Cyk3 SH3 domain fragment (amino acids 1–70) (domain or fragment, S. cerevisiae, UniProt Q07533 1-70, looked up) MATNLTSLKPPFKVKARYGWSGQTKGDLGFLEGDIMEVTRIAGSWFYGKLLRNKKCSGYFPHNFVILLEE |
